Measured values taken from US20160158154A1 (GEORGIA TECH RESEARCH, published 2016).

B2: ZR-ELP (arginine-rich leucine zipper motif ZR fused with an elastin-like polypeptide) (other)
chain: MKGSLEIRAAALRRRNTALRTRVAELRQRVQRLRNEVSQYETRYGPLGGGGSGGGGSGVPGVGVPGVGVPGFGVPGVGVPGVGVPGVGVPGVGVPGFGVPGVGVPGVGVPGVGVPGVGVPGFGVPGVGVPGVGVPGVGVPGVGVPGFGVPGVGVPGVGVPGVGVPGVGVPGFGVPGVGVPGVGVPGC
notes: Forms ZR/ZR homodimers when no ZE partner is present

Assays:
[1] = molecular target: B2; experiment: co-expression in E. coli
From the text: to prevent degradation during expression (Park W M, et al., Angew. Chem. Int. Ed., 52 (31), 8098-8101 (2013); Zhang K, et., Chem Bio Chem, 10 (16), 2617-2619 (2009)). Co-expressed ZR-ELP, i.e. the fusion peptide having an amino acid sequence of […](G₄S)₂G[(VPGVG)₂VPGFG(VPGVG)₂]₅VPGC (SEQ ID NO:27) and His₆ZE form a protein complex His₆ZE/ZR-ELP, which is resistant to proteolysis in the cytoplasm. All plasmids (pQE60-His₆ZE/ZR-ELP, pQE60-mCherry-ZE, and pQE60-EGFP-Z₅) were transformed into E. coli strain AFIQ-BL21 for expression. All cell cultures were grown at 37° C. in 2× yeast extract and tryptone (YT) media containing ampicillin (200 mg/L) and chloramphenicol (34 mg/L). When the cell culture optical density at 600 nm reached 0.8, protein expression was induced by 1.0 mM of isopropylβ-thiogalactoside (IPTG). Cells were harvested by centrifugation after 5 hours of expression at 37° C.

[2] = molecular target: the molecule itself; experiment: solution at 4 C; circular dichroism confirmed the coiled coil
Protocol: The CD spectra of protein complexes were recorded on a Jasco J-810 spectropolarimeter (JASCO). Protein solution samples were prepared in PBS (pH 7.4), and measurements were performed in a 0.2 cm-length cuvette. The spectra were obtained in 1 nm increments within a wavelength range of 200-300 nm. Mean residue ellipticity was measured from protein solutions containing 5 μM of protein complexes at 4° C. Mean residue ellipticity was converted from accumulated spectra of five measurements for each sample. The peak at a wavelength of 222 nm indicated presence of α-helical coiled-coils of ZR/ZR and ZE/ZR.

B1: His6-tagged ZE (peptide)
peptide: LEIEAAALEQENTALETEVAELEQEVQRLENIVSQYRTRYGPLRSHHHHHH
notes: It was co-expressed with ZR-ELP; also called His6ZE; His6-ZE
binding result [1]: binds

B2
binding result [2]: binds
